Reference: the Human Domainome abundance scans (Beltran et al. 2025)
± gives the uncertainty stated by the source.

B1: Peripheral plasma membrane protein CASK, residues 488 to 569; numbered along this chain, O14936 (parent)
chain: VRLVQFQKNTDEPMGITLKMNELNHCIVARIMHGGMIHRQGTLHVGDEIREINGISVANQTVEQLQKMLREMRGSITFKIVP

Variants of: B1
Assay: abundance fitness (aPCA) (normalised: wild type 0, dead -1); higher = more abundant; growth selection in yeast, the domain comes from the species named
Conditions: Homo sapiens

Variant	abundance fitness
R50H	-0.148 ± 0.11
R50G	-0.315 ± 0.034
R50E	-0.068 ± 0.037
R50A	-0.025 ± 0.033
R50C	0.038 ± 0.056
R50I	0.034 ± 0.089
R50K	0.028 ± 0.045
R50F	-0.211 ± 0.15
T42G	0.005 ± 0.02
T42M	0.01 ± 0.032
T42R	-0.038 ± 0.02
T42E	0.012 ± 0.026
T42H	-0.065 ± 0.045
T42F	-0.021 ± 0.037
T42K	0.025 ± 0.031
T42A	0.005 ± 0.024
T42N	-0.039 ± 0.046
T42L	-0.003 ± 0.024
T42Q	0.003 ± 0.031
T42V	-0.019 ± 0.023
T42P	-0.336 ± 0.033
T42W	-0.246 ± 0.027
T42S	0.005 ± 0.024
T42C	-0.025 ± 0.031

Variant	abundance fitness
T42Y	-0.076 ± 0.037
T42D	-0.007 ± 0.032
Q40F	-0.103 ± 0.041
Q40C	-0.072 ± 0.029
Q40H	-0.096 ± 0.041
Q40N	-0.007 ± 0.041
Q40M	-0.055 ± 0.026
Q40E	0.018 ± 0.024
Q40P	-0.552 ± 0.04
Q40T	-0.067 ± 0.026
Q40V	-0.065 ± 0.021
Q40I	-0.05 ± 0.038
Q40A	-0.016 ± 0.02
Q40L	-0.06 ± 0.022
Q40S	-0.043 ± 0.023
Q40G	-0.097 ± 0.023
H38N	-0.138 ± 0.055
H38C	-0.129 ± 0.036
H38I	-0.295 ± 0.066
H38D	-0.043 ± 0.035
H38E	0.048 ± 0.027
H38Q	0.024 ± 0.034
H38G	-0.091 ± 0.02
H38K	-0.138 ± 0.037

Variant	abundance fitness
H38P	-0.103 ± 0.034
H38A	-0.028 ± 0.024
H38L	-0.348 ± 0.03
H38Y	-0.076 ± 0.049
H38T	-0.313 ± 0.04
H38F	-0.057 ± 0.045
H38W	-0.029 ± 0.026
H38S	-0.052 ± 0.028
H38R	-0.209 ± 0.023
I37M	-0.021 ± 0.03
I37E	-0.378 ± 0.032
I37R	-0.531 ± 0.026
I37F	-0.092 ± 0.048
I37H	-0.294 ± 0.05
I37T	-0.129 ± 0.029
I37Y	-0.38 ± 0.056
I37W	-0.333 ± 0.03
I37P	-0.42 ± 0.044
I37N	-0.391 ± 0.059
I37G	-0.276 ± 0.023
I37C	-0.024 ± 0.034
I37S	-0.217 ± 0.028
I37L	-0.103 ± 0.025
I37A	0.019 ± 0.025

Variant	abundance fitness
I37Q	-0.43 ± 0.045
H44D	-0.021 ± 0.031
H44P	-0.917 ± 0.063
H44Y	-0.075 ± 0.051
H44E	0.02 ± 0.035
H44K	0.007 ± 0.032
H44S	-0.007 ± 0.023
H44Q	-0.006 ± 0.03
H44W	-0.281 ± 0.03
H44I	-0.188 ± 0.049
H44N	-0.029 ± 0.037
H44A	-0.006 ± 0.023
H44L	-0.142 ± 0.025
H44M	-0.024 ± 0.03
H44F	-0.125 ± 0.04
H44T	-0.039 ± 0.029
H44C	-0.012 ± 0.033
M36P	0.095 ± 0.048
M36A	0.039 ± 0.039
M36V	0 ± 0.036
M36W	0.068 ± 0.035
M36E	0.009 ± 0.042
M36R	-0.092 ± 0.028
M36F	0.119 ± 0.082

Variant	abundance fitness
M36I	0.029 ± 0.061
M36T	0.006 ± 0.05
M36D	-0.044 ± 0.062
M36C	-0.07 ± 0.058
M36S	0.049 ± 0.038
M36Y	0.066 ± 0.072
M36G	-0.05 ± 0.029
M36N	-0.07 ± 0.08
M36H	0.075 ± 0.061
M36L	0.025 ± 0.037
M36Q	-0.014 ± 0.044
H33R	-0.006 ± 0.024
H33E	0.066 ± 0.033
H33F	-0.102 ± 0.062
H33L	-0.119 ± 0.028
H33K	0.01 ± 0.04
H33C	-0.033 ± 0.039
H33V	0.003 ± 0.028
H33Y	-0.107 ± 0.053
H33M	-0.026 ± 0.036
H33Q	0.045 ± 0.036
H33W	-0.16 ± 0.034
H33I	-0.006 ± 0.052
H33G	-0.054 ± 0.025

Variant	abundance fitness
H33P	0.009 ± 0.033
H33T	0.005 ± 0.035
H33D	-0.011 ± 0.044
H33S	-0.008 ± 0.029
L43C	-0.308 ± 0.038
L43H	-0.97 ± 0.16
L43W	-0.662 ± 0.041
L43D	-1.04 ± 0.11
L43R	-0.853 ± 0.036
L43F	0.052 ± 0.055
L43S	-0.755 ± 0.051
L43G	-0.985 ± 0.043
L43Y	-0.733 ± 0.11
L43P	-0.658 ± 0.06
L43N	-0.906 ± 0.15
L43T	-0.76 ± 0.06
L43V	-0.021 ± 0.024
L43Q	-1.01 ± 0.1
L43K	-0.99 ± 0.09
L43A	-0.722 ± 0.04
L43M	-0.021 ± 0.03
L43E	-0.774 ± 0.049
R30Q	-0.013 ± 0.045
R30Y	0.015 ± 0.092

Variant	abundance fitness
R30W	-0.114 ± 0.034
R30V	-0.163 ± 0.032
R30S	-0.007 ± 0.033
V45A	-0.045 ± 0.043
V45G	-0.548 ± 0.054
V45Q	-0.134 ± 0.061
V45E	-0.054 ± 0.046
V45D	-0.178 ± 0.079
V45L	-0.061 ± 0.05
V45M	-0.025 ± 0.074
V45R	-0.169 ± 0.043
V45W	-0.464 ± 0.12
V45T	0.022 ± 0.075
V45C	-0.128 ± 0.079
V45N	-0.292 ± 0.12
V45F	-0.457 ± 0.14
V45Y	-0.665 ± 0.35
V45S	-0.232 ± 0.051
V45P	-0.059 ± 0.072
V45I	-0.046 ± 0.047
V45H	0.016 ± 0.18
V45K	-0.207 ± 0.083
G41F	-0.618 ± 0.061
